# Measured values from patent US20140087995A1 (published 2014).
# Numbered stars: 1 amine (or outer) side, 2 acyl side, 3 side chain; on linkers, the order of the positions; unused ones are H or OH. Bridge positions count the residues as written; N and C are the ends. Side chains are listed from the residue outwards. Ends that are not written are not given here. * marks the point of attachment. C20 diacid = O=C(O)CCCCCCCCCCCCCCCCCCC(=O)*; γGlu = O=C(O)[C@H](CCC(=O)[*:2])N[*:1]
# T1: human amylin receptor (human, UniProt P30988 25-474; O60896 24-148, limits assumed)
# T1 construct: whole, on cells; Calcitonin receptor plus RAMP-3 gives the amylin 3(a) receptor; membranes of Amylin 3(a)/CRE-luc cells were used; also called hAmylin-R; hAmylinR
# T1 sequence (looked up) 1: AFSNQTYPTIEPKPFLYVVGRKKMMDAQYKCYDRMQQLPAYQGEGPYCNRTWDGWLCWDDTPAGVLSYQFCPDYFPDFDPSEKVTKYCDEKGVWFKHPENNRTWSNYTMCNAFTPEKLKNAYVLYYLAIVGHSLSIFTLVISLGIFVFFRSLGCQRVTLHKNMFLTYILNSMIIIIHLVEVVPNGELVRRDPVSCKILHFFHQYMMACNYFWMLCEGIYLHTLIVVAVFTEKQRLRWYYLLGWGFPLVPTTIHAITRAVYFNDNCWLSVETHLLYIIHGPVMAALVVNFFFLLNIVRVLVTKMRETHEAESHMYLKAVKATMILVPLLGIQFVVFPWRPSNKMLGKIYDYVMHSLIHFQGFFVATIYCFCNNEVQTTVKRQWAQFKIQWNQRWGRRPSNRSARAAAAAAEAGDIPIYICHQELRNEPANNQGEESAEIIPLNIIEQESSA
# T1 sequence (looked up) 2: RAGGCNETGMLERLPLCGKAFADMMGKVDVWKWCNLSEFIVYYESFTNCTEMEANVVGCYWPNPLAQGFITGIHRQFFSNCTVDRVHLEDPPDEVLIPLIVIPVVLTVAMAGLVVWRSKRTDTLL
# Target: T1, human amylin receptor
# Assay: SPA competition binding, displacement of 125I-rat amylin from membranes with human amylin 3(a) receptor (Assay V)
# How it was run: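 Cell membranes were prepared by homogenisation in Na-HEPES/EDTA buffer, pH 7.4, and stored at −80° C. They were then coupled to SPA beads at 35 ng/μL final and exposed to compounds in assay buffer containing CaCl2, MgCl₂, OA and Tween20. After 120 min at 25° C, plates were counted and IC₅₀ derived.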
row,Binder,IC50 [nM]
1,"K([γGlu-γGlu-C20 diacid])CNTATCATQRLADFLRHSSPNFGAIPSSTNVGSDTY-NH2 (disulfide 2-7; N-terminus assumed; SMILES CC[C@H](C)[C@H](NC(=O)[C@H](C)NC(=O)CNC(=O)[C@H](Cc1ccccc1)NC(=O)[C@H](CC(N)=O)NC(=O)[C@@H]1CCCN1C(=O)[C@H](CO)NC(=O)[C@H](CO)NC(=O)[C@H](Cc1c[nH]cn1)NC(=O)[C@H](CCCNC(=N)N)NC(=O)[C@H](CC(C)C)NC(=O)[C@H](Cc1ccccc1)NC(=O)[C@H](CC(=O)O)NC(=O)[C@H](C)NC(=O)[C@H](CC(C)C)NC(=O)[C@H](CCCNC(=N)N)NC(=O)[C@H](CCC(N)=O)NC(=O)[C@@H](NC(=O)[C@H](C)NC(=O)[C@@H]1CSSC[C@H](NC(=O)[C@@H](N)CCCCNC(=O)CC[C@H](NC(=O)CC[C@H](NC(=O)CCCCCCCCCCCCCCCCCCC(=O)O)C(=O)O)C(=O)O)C(=O)N[C@@H](CC(N)=O)C(=O)N[C@@H]([C@@H](C)O)C(=O)N[C@@H](C)C(=O)N[C@@H]([C@@H](C)O)C(=O)N1)[C@@H](C)O)C(=O)N1CCC[C@H]1C(=O)N[C@@H](CO)C(=O)N[C@@H](CO)C(=O)N[C@H](C(=O)N[C@@H](CC(N)=O)C(=O)N[C@H](C(=O)NCC(=O)N[C@@H](CO)C(=O)N[C@@H](CC(=O)O)C(=O)N[C@H](C(=O)N[C@@H](Cc1ccc(O)cc1)C(N)=O)[C@@H](C)O)C(C)C)[C@@H](C)O, also called 14D, 17R, 21P, 27P, 35D)",0.411
2,"K([γGlu-γGlu-C20 diacid])CNTATCATQRLAEFLRHSSPNFGAIPSSTNVGHNTY-NH2 (disulfide 2-7; N-terminus assumed; SMILES CC[C@H](C)[C@H](NC(=O)[C@H](C)NC(=O)CNC(=O)[C@H](Cc1ccccc1)NC(=O)[C@H](CC(N)=O)NC(=O)[C@@H]1CCCN1C(=O)[C@H](CO)NC(=O)[C@H](CO)NC(=O)[C@H](Cc1c[nH]cn1)NC(=O)[C@H](CCCNC(=N)N)NC(=O)[C@H](CC(C)C)NC(=O)[C@H](Cc1ccccc1)NC(=O)[C@H](CCC(=O)O)NC(=O)[C@H](C)NC(=O)[C@H](CC(C)C)NC(=O)[C@H](CCCNC(=N)N)NC(=O)[C@H](CCC(N)=O)NC(=O)[C@@H](NC(=O)[C@H](C)NC(=O)[C@@H]1CSSC[C@H](NC(=O)[C@@H](N)CCCCNC(=O)CC[C@H](NC(=O)CC[C@H](NC(=O)CCCCCCCCCCCCCCCCCCC(=O)O)C(=O)O)C(=O)O)C(=O)N[C@@H](CC(N)=O)C(=O)N[C@@H]([C@@H](C)O)C(=O)N[C@@H](C)C(=O)N[C@@H]([C@@H](C)O)C(=O)N1)[C@@H](C)O)C(=O)N1CCC[C@H]1C(=O)N[C@@H](CO)C(=O)N[C@@H](CO)C(=O)N[C@H](C(=O)N[C@@H](CC(N)=O)C(=O)N[C@H](C(=O)NCC(=O)N[C@@H](Cc1c[nH]cn1)C(=O)N[C@@H](CC(N)=O)C(=O)N[C@H](C(=O)N[C@@H](Cc1ccc(O)cc1)C(N)=O)[C@@H](C)O)C(C)C)[C@@H](C)O, also called 14E, 17R, 21P, 27P, 34H)",0.633
3,"K([γGlu-γGlu-C20 diacid])CNTATCATQRLAEFLRHSSPNFGAIPSSTNVGRETY-NH2 (disulfide 2-7; N-terminus assumed; SMILES CC[C@H](C)[C@H](NC(=O)[C@H](C)NC(=O)CNC(=O)[C@H](Cc1ccccc1)NC(=O)[C@H](CC(N)=O)NC(=O)[C@@H]1CCCN1C(=O)[C@H](CO)NC(=O)[C@H](CO)NC(=O)[C@H](Cc1c[nH]cn1)NC(=O)[C@H](CCCNC(=N)N)NC(=O)[C@H](CC(C)C)NC(=O)[C@H](Cc1ccccc1)NC(=O)[C@H](CCC(=O)O)NC(=O)[C@H](C)NC(=O)[C@H](CC(C)C)NC(=O)[C@H](CCCNC(=N)N)NC(=O)[C@H](CCC(N)=O)NC(=O)[C@@H](NC(=O)[C@H](C)NC(=O)[C@@H]1CSSC[C@H](NC(=O)[C@@H](N)CCCCNC(=O)CC[C@H](NC(=O)CC[C@H](NC(=O)CCCCCCCCCCCCCCCCCCC(=O)O)C(=O)O)C(=O)O)C(=O)N[C@@H](CC(N)=O)C(=O)N[C@@H]([C@@H](C)O)C(=O)N[C@@H](C)C(=O)N[C@@H]([C@@H](C)O)C(=O)N1)[C@@H](C)O)C(=O)N1CCC[C@H]1C(=O)N[C@@H](CO)C(=O)N[C@@H](CO)C(=O)N[C@H](C(=O)N[C@@H](CC(N)=O)C(=O)N[C@H](C(=O)NCC(=O)N[C@@H](CCCNC(=N)N)C(=O)N[C@@H](CCC(=O)O)C(=O)N[C@H](C(=O)N[C@@H](Cc1ccc(O)cc1)C(N)=O)[C@@H](C)O)C(C)C)[C@@H](C)O, also called 14E, 17R, 21P, 27P, 34R, 35E)",0.957
4,"K([γGlu-γGlu-C20 diacid])CNTATCATQRLADFLRHSSPNFGAIPSSTNVGPETY-NH2 (disulfide 2-7; N-terminus assumed; SMILES CC[C@H](C)[C@H](NC(=O)[C@H](C)NC(=O)CNC(=O)[C@H](Cc1ccccc1)NC(=O)[C@H](CC(N)=O)NC(=O)[C@@H]1CCCN1C(=O)[C@H](CO)NC(=O)[C@H](CO)NC(=O)[C@H](Cc1c[nH]cn1)NC(=O)[C@H](CCCNC(=N)N)NC(=O)[C@H](CC(C)C)NC(=O)[C@H](Cc1ccccc1)NC(=O)[C@H](CC(=O)O)NC(=O)[C@H](C)NC(=O)[C@H](CC(C)C)NC(=O)[C@H](CCCNC(=N)N)NC(=O)[C@H](CCC(N)=O)NC(=O)[C@@H](NC(=O)[C@H](C)NC(=O)[C@@H]1CSSC[C@H](NC(=O)[C@@H](N)CCCCNC(=O)CC[C@H](NC(=O)CC[C@H](NC(=O)CCCCCCCCCCCCCCCCCCC(=O)O)C(=O)O)C(=O)O)C(=O)N[C@@H](CC(N)=O)C(=O)N[C@@H]([C@@H](C)O)C(=O)N[C@@H](C)C(=O)N[C@@H]([C@@H](C)O)C(=O)N1)[C@@H](C)O)C(=O)N1CCC[C@H]1C(=O)N[C@@H](CO)C(=O)N[C@@H](CO)C(=O)N[C@H](C(=O)N[C@@H](CC(N)=O)C(=O)N[C@H](C(=O)NCC(=O)N1CCC[C@H]1C(=O)N[C@@H](CCC(=O)O)C(=O)N[C@H](C(=O)N[C@@H](Cc1ccc(O)cc1)C(N)=O)[C@@H](C)O)C(C)C)[C@@H](C)O, also called 14D, 17R, 21P, 27P, 34P, 35E)",0.172
5,"K([γGlu-γGlu-C20 diacid])CNTATCATQRLAEFLRHSSPNFGAIPSSTNVGRNTY-NH2 (disulfide 2-7; N-terminus assumed; SMILES CC[C@H](C)[C@H](NC(=O)[C@H](C)NC(=O)CNC(=O)[C@H](Cc1ccccc1)NC(=O)[C@H](CC(N)=O)NC(=O)[C@@H]1CCCN1C(=O)[C@H](CO)NC(=O)[C@H](CO)NC(=O)[C@H](Cc1c[nH]cn1)NC(=O)[C@H](CCCNC(=N)N)NC(=O)[C@H](CC(C)C)NC(=O)[C@H](Cc1ccccc1)NC(=O)[C@H](CCC(=O)O)NC(=O)[C@H](C)NC(=O)[C@H](CC(C)C)NC(=O)[C@H](CCCNC(=N)N)NC(=O)[C@H](CCC(N)=O)NC(=O)[C@@H](NC(=O)[C@H](C)NC(=O)[C@@H]1CSSC[C@H](NC(=O)[C@@H](N)CCCCNC(=O)CC[C@H](NC(=O)CC[C@H](NC(=O)CCCCCCCCCCCCCCCCCCC(=O)O)C(=O)O)C(=O)O)C(=O)N[C@@H](CC(N)=O)C(=O)N[C@@H]([C@@H](C)O)C(=O)N[C@@H](C)C(=O)N[C@@H]([C@@H](C)O)C(=O)N1)[C@@H](C)O)C(=O)N1CCC[C@H]1C(=O)N[C@@H](CO)C(=O)N[C@@H](CO)C(=O)N[C@H](C(=O)N[C@@H](CC(N)=O)C(=O)N[C@H](C(=O)NCC(=O)N[C@@H](CCCNC(=N)N)C(=O)N[C@@H](CC(N)=O)C(=O)N[C@H](C(=O)N[C@@H](Cc1ccc(O)cc1)C(N)=O)[C@@H](C)O)C(C)C)[C@@H](C)O, also called 14E, 17R, 21P, 27P, 34R)",0.75
6,"K([γGlu-γGlu-C20 diacid])CNTATCATQRLAEFLRHSSPNFGAIPSSTNVGHETY-NH2 (disulfide 2-7; N-terminus assumed; SMILES CC[C@H](C)[C@H](NC(=O)[C@H](C)NC(=O)CNC(=O)[C@H](Cc1ccccc1)NC(=O)[C@H](CC(N)=O)NC(=O)[C@@H]1CCCN1C(=O)[C@H](CO)NC(=O)[C@H](CO)NC(=O)[C@H](Cc1c[nH]cn1)NC(=O)[C@H](CCCNC(=N)N)NC(=O)[C@H](CC(C)C)NC(=O)[C@H](Cc1ccccc1)NC(=O)[C@H](CCC(=O)O)NC(=O)[C@H](C)NC(=O)[C@H](CC(C)C)NC(=O)[C@H](CCCNC(=N)N)NC(=O)[C@H](CCC(N)=O)NC(=O)[C@@H](NC(=O)[C@H](C)NC(=O)[C@@H]1CSSC[C@H](NC(=O)[C@@H](N)CCCCNC(=O)CC[C@H](NC(=O)CC[C@H](NC(=O)CCCCCCCCCCCCCCCCCCC(=O)O)C(=O)O)C(=O)O)C(=O)N[C@@H](CC(N)=O)C(=O)N[C@@H]([C@@H](C)O)C(=O)N[C@@H](C)C(=O)N[C@@H]([C@@H](C)O)C(=O)N1)[C@@H](C)O)C(=O)N1CCC[C@H]1C(=O)N[C@@H](CO)C(=O)N[C@@H](CO)C(=O)N[C@H](C(=O)N[C@@H](CC(N)=O)C(=O)N[C@H](C(=O)NCC(=O)N[C@@H](Cc1c[nH]cn1)C(=O)N[C@@H](CCC(=O)O)C(=O)N[C@H](C(=O)N[C@@H](Cc1ccc(O)cc1)C(N)=O)[C@@H](C)O)C(C)C)[C@@H](C)O, also called 14E, 17R, 21P, 27P, 34H, 35E)",0.525
